{"source": "patent US10323078B2", "about": "“Isolated peptides and fragments thereof from fibrinogen for use as drugs, particularly in skin inflammatory diseases” (Universite Paris Descartes, priority 2015, dated 2019)", "molecules": {"B1": {"name": "DAGGCLHADPDLGVLCPTGCQLQEALLQQERPIRNSVDELNNNVEAVSQTSSSSFQYMYLLKDLWQKRQKQVKDNENVVNEYSSELEKHQLYIDETVNSNIPTNLRVLRSILENLRSKIQKLESDVSAQMEYCRTPCTVSCNIPVVS (protein)", "chain": "DAGGCLHADPDLGVLCPTGCQLQEALLQQERPIRNSVDELNNNVEAVSQTSSSSFQYMYLLKDLWQKRQKQVKDNENVVNEYSSELEKHQLYIDETVNSNIPTNLRVLRSILENLRSKIQKLESDVSAQMEYCRTPCTVSCNIPVVS", "modifications": "fragment Fg2", "notes": "recombinant fragment of Bß sub-unit of human fibrinogen, used as negative control"}}, "key": {"[1]": {"tested_on": "NHEK cells", "assay": "In vitro model of psoriasis: IL-8 release by keratinocytes stimulated by IL-17, OSM and TNF-α", "format": "cell-based, human", "details": "NHEK stimulated by IL-17, OSM and TNF-α (3 ng/ml each); 10 μM; 48 h", "method": "(§1) FIG. 30: Inhibition of Il-8 production by keratinocytes stimulated by Il-17, OSM and TNF-α. NHEK cells were stimulated by a combination of Il-17, OSM and TNF-α (3 ng/ml each) and treated with JAK inhibitor at 10 μM (positive control) or Fg1.1.1 at concentrations ranging from 1.52 to 12.2 μM for 48 h. Measurement of IL-8 production was realized by ELISA and cytotoxicity was determined by the MTT assay as described in Materials and Methods Control experiments were done with untreated and unstimulated NHEK cells (cell alone) and with untreated NHEK stimulated by the combination of Il-17, OSM and TNF-α. Data are means±S.D. of three individual experiments. Statistical significance is indicated by * (P<0.05), ** (P<0.01), and *** (P<0.001), respectively.\n(§2) For experiences using an in vitro model of psoriasis, cutaneous primary human keratinocytes (NHDK) were grown in culture medium for 24 hours. […]\n(§3) Human IL-1ß, IL-8, IL-12, hBD-2, and TNF-α protein concentration was measured in the supernatants of stimulated cells using various ELISA Set kits (Ready-Set-Go kit from eBioscience for acne experiments, and for psoriasis experiments the Duo set IL-8 kit from R&D Systems and the BD-2 Human Development (hBD-2) from Peprotech) according to the manufacturer's instructions. […] The optical density was determined at 450 nm at a wavelength correction of 540 nm. […]"}, "[2]": {"tested_on": "NHEK cells", "assay": "In vitro model of psoriasis: hBD-2 release by keratinocytes stimulated by IL-17, OSM and TNF-α", "format": "cell-based, human", "details": "NHEK stimulated by IL-17, OSM and TNF-α (5 ng/ml each); 10 μM; 72 h", "method": "as §1, with “31:” for “30:”, “hBD-2” for “Il-8”, “(5” for “(3”, “72” for “48”, “hBD-2” for “IL-8”\nas §2, §3"}, "[3]": {"tested_on": "NHEK cells", "assay": "In vitro model of psoriasis: cytotoxicity by MTT assay", "format": "cell-based, human", "details": "all concentrations tested (1.52 to 12.2 μM)", "method": "as §1, with “Statistical significance is indicated by * (P<0.05), ** (P<0.01), and *** (P<0.001), respectively.” left out\nFIG. 31: Inhibition of hBD-2 production by keratinocytes stimulated by Il-17, OSM and TNF-α. […] Measurement of hBD-2 production was realized by ELISA and cytotoxicity was determined by the MTT assay as described in Materials and Methods Control experiments were done with untreated and unstimulated NHEK cells (cell alone) and with untreated NHEK stimulated by the combination of Il-17, OSM and TNF-α. […]\nCrystal violet staining was used to determine the number of adherent cells in 96-well plates. […] After washing with PBS, 100% methanol was added, and the absorbance was measured spectrophotometrically at 540 nm on an ELISA multiwell reader. […] After thorough mixing, the absorbance was measured at 540 nm."}, "[4]": {"tested_on": "Pfg", "assay": "Western ligand blot with biotinylated Pfg", "format": "binding, Propionibacterium acnes", "details": "E. coli total protein after IPTG induction, 12.5% SDS-PAGE; biotinylated Pfg 0.1 μg/ml", "method": "FIG. 5: Binding of P. acnes surface proteins to fibrinogen. (A) Various quantities of human fibrinogen (hFg) and bovine fibrinogen (bFg) were immobilized onto a 96-well polystyrene plate at 4° C. for 18 h and incubated with biotinylated Pfg at 0.1 μg/ml for 2 h at 23° C. Bovine serum albumin (BSA) was used as negative control. Bound material was detected by using the HRP-streptavidin conjugate. Peroxidase activity was measured by using the ABTS substrate at 405 nm. Proteins (10 μg per lane) were separated by 10% SDS-PAGE and detected by (B) Commassie blue staining, and transferred to nitrocellulose membrane and incubated with (C) HRP-streptavidine alone, and (D) biotinylated Pfg (0.1 μg/ml). Lanes 1: molecular weight standards. Lane 2: BSA. Lane 3: hFg. Lane 4: bFg.\nFIG. 8: Cloning of Bß human fibrinogen fragments and binding with Pfg. (A) Cloning and expression of recombinant human Bß fibrinogen fragments Fg1, Fg2, Fg3 and Fg4. Fibrinogen fragments were obtained by RT-PCR and expression plasmids were constructed as described in Materials and Methods. (B) GST-fused proteins were expressed in E. coli, fractionated by 12.5% SDS-PAGE, and detected by Coomassie blue staining (B), and incubated with biotinylated Pfg (0.1 μg/ml) as described in Materials and Methods (C).\nTo characterize the interaction between P. acnes and ligands, we used biotinylated molecules in quantitative and qualitative assays. In a first set of assays, ECM ligands (fibrinogen, collagens I, IV, VI and VIII) were used as labelled proteins with biotin. In a second set of assays, P. acnes surface proteins (total extract and purified Pfg) were biotinylated. For quantitative analysis, unlabeled protein were diluted into 50 mM carbonate-bicarbonate, pH 9.6 buffer to yield a protein concentration ranging from 0.01 to 50 μg/ml, and then immobilized to 96-well polystyrene plates at 4° C. overnight. The wells were rinsed three times with 0.2 ml of PBS containing 0.05% Tween-20 (PBS-Tween). Biotinylated proteins (0.01 to 16 μg/ml in PBS-Tween) were added to the wells and incubated at room temperature for 1 h. The wells were rinsed three times with 0.2 ml of PBS-Tween. Peroxidase conjugated to streptavidin (0.5 μg/ml in PBS-Tween) was added and incubated for 30 min at room temperature. After washing, bound peroxidase was detected using the chromogenic peroxidase substrate ABTS. For qualitative analysis, unlabelled protein (10-75 μg per lane) were separated by SDS-PAGE and then transferred to nitrocellulose membranes (0.45 μm pore size), as described previously (Towbin, 1979). Membranes were then saturated overnight at 4° C. in PBS containing 5% BSA, 0.05% Tween-20 (PBT buffer). Binding activity was detected by incubating the membranes with 20 ml of PBT containing biotinylated proteins (0.1 μg/ml) for 2 h at room temperature followed by three washes with PBT. Bound biotinylated proteins were detected by incubating the membrane with peroxidase conjugated to streptavidin (0.5 μg/ml in PBT) for 1 h at room temperature. After washing, bound peroxidase activity was detected using 3,3′-diaminobenzidine in the presence of CoCl2 and H2O2 (Harlow and Lane, 1988).\nSince it was shown that Pfg is recognized by fibrinogen, this ECM ligand was used to analyze the nature of this interaction. First it was analyzed the ability of fibrinogen to be recognized by purified Pfg (FIG. 5). Human and bovine Fg (hFg, bFg) were immobilized to polysterene plate and the binding activity of biotinylated Pfg was measured. […] It has been shown that fibrinogen is a glycoprotein containing both N- and O-linked glycans (Debeire 1985; Reid Townsend 1982; L'Hôte 1996). […] In parallel, deglycosylation was assessed by visualization of a shift in the mobility after electrophoresis separation and Coomassie blue staining (FIG. 6A, lanes 3 and 5) and also by using the RCA-I plant lectin able to recognize ß-linked galactosyl residues in terminal position (FIG. 6C) (Green, 1987). […]"}, "[5]": {"tested_on": "Pfg binding to fibrinogen", "assay": "Inhibition of biotinylated Pfg binding to coated fibrinogen", "design": "species or system Propionibacterium acnes", "details": "biotinylated Pfg pretreated with increasing amount of recombinant peptide 1 h at 37° C.; fibrinogen coated 25 μg per well", "method": "FIG. 9: Dose-dependent inhibition of biotinylated Pfg binding to fibrinogen by fibrinogen-derived peptide. Biotinylated PFg (0.4 mg) was pretreated with increasing amount of recombinant peptides Fg1 (♦), Fg2 (▪) or BSA as control (●) for 1 h at 37° C., and the binding activity to coated fibrinogen on polystyrene plate (25 μg per well) was evaluated. Results are expressed as mean±SD. Each point was done in quadruplet.\nSince it has been shown that only Fg1 was able to recognize Pfg, biotinylated Pfg was pre-treated with various concentrations of purified Fg1 and tested its ability to recognize immobilized fibrinogen. Fg2 and BSA were used as neative controls (FIG. 9)."}, "[6]": {"tested_on": "HaCaT, NHDK, ThP1, MRC5 and HDF cell lines", "assay": "Cell viability (MTT) after treatment with Fg1 and Fg2 recombinant peptides", "format": "cell-based, human", "details": "all 5 cell lines; 0.22 to 7 mM for 18 h at 37° C.", "method": "FIG. 10: Evaluation of cell viability after treatment with the Fg1 and Fg2 recombinant peptides. Human immortalized and primary keratinocyte cell lines HaCaT and NHDK; immortalized monocytes cell line ThP1, and immortalized and primary fibroblast cell lines MRCS and HDF were incubated with Fg1 and Fg2 recombinant peptides with concentrations ranging from 0.22 to 7 mM for 18 h at 37° C. Cell viability was assessed using the MTT assay as described in Materials and Methods.\nCrystal violet staining was used to determine the number of adherent cells in 96-well plates. Briefly, after incubation with the test compound, the culture medium was discarded and the cells were incubated with a 0.05% crystal violet solution (Sigma) for 30 min at room temperature. After washing with PBS, 100% methanol was added, and the absorbance was measured spectrophotometrically at 540 nm on an ELISA multiwell reader. The MTT ([…]) assay was performed to test cell viability in 96-well plates. […] After thorough mixing, the absorbance was measured at 540 nm.\n(§4) Whole P. acnes bacteria are labelled by biotinylation, pre-treated or not with the peptides and contacted with the various cell lines. After removal of the unfixed bacteria, the adhesion activity was measured spectrophotometrically by using the streptavidin-peroxidase conjugate and a chromogenic substrate."}, "[7]": {"tested_on": "P. acnes RON strain", "assay": "Adhesion assay, biotinylated P. acnes binding to monocytes (ThP1)", "format": "cell-based, Propionibacterium acnes", "details": "monocytes (THP-1); bacteria pretreated 0.87 to 7 μM, 1 h at 37° C.", "method": "FIG. 13: Dose-dependent inhibition of P. acnes RON binding to monocytes cell line. Biotinylated P. acnes RON strain at concentrations adjusted to 0.1 of absorbance at 600 nm was pre-treated with the recombinant peptides Fg1 and Fg2 and incubated 1 h at 37° C. with the human immortalized monocytes cell line ThP1. After removal of unbound bacteria, adhesion activity was detected at 410 nm. Data are means±S.D. of three separate experiments. Statistical significance is indicated by * (P<0.05), ** (P<0.01), *** (P<0.001), and **** (P<0.0001), respectively.\nThe bacterial suspension was adjusted at 600 nm to the desired concentration, pretreated with peptides Fg1 and Fg2 at the final concentration ranging from 0.87 to 7 μM for 1 h at 37° C. and deposited on the previously saturated cells with a solution of PBS SVF 2% for 2 h. After incubation for 1 h at 37° C., unbound bacteria are removed by 3 washes with PBS and fixed bacteria are detected by a streptavidin-peroxidase solution of 0.5 μg/ml for 30 min.\nas §4, with “substrate. […]” for “substrate.”"}}, "note": "Ends that are not written are not given here.", "data": [{"molecule": "Jak Inhibitor I", "values": [{"measurement": "Inhibition of IL-8 release", "setting": "[1]", "value": 67, "unit": "%"}, {"measurement": "Inhibition of hBD-2 release", "setting": "[2]", "value": 80, "unit": "%"}]}, {"molecule": "LLLCVFLVKSQGVND [Fg1.1.1, LLLCVFLVKSQGVND]", "values": [{"measurement": "Effect on cell viability (MTT)", "setting": "[3]", "value": "no effect on cell viability"}]}, {"molecule": "B1", "values": [{"measurement": "Recognition of GST-fused recombinant Bß fibrinogen fragments by biotinylated Pfg", "setting": "[4]", "value": "only Fg1 was recognized"}, {"measurement": "Inhibition of the recognition between Pfg and human fibrinogen", "setting": "[5]", "value": "did not"}, {"measurement": "Cytotoxic activity (cell viability, MTT)", "setting": "[6]", "value": "no cytotoxic activity"}, {"measurement": "Inhibition of adhesion of P. acnes RON strain", "setting": "[7]", "value": "no anti-adhesive activity"}]}]}
